The values below come from PMC6409194 (European journal of pharmacology, 2019).

The target of the assay is calmodulin (UniProt P0DP23 1-149). Kind of assay: other fluorescence titration.

B1: BSα1A-AR333-361mut, FRET biosensor with K353Q/L356A SMD4JM (a.a. 333-361) of the human α1A adrenoceptor between ECFP and EYFPc (domain or fragment)
chain: FKKAFQNVLRIQCLCRKQSSQHAAGYTLH
One may read the Kd as the concentration at which binding is half-saturated. Low readings indicate higher affinity, high ones lower affinity. As to B1, binding was put at a Kd of 3.8 µM.
